US20120195910A1 (published 2012)

How the values were obtained:
biotinylated human PCSK9 = biotinylated human PCSK9 (UniProt Q8NBP7 31-692, biotinylated (sites not given)); assay: competition binding ELISA (PCSK9-LDLR)
[1] = molecular target: Human PCSK9 (Genbank EF692496) containing a histidine (His)8 C-terminal tag (UniProt Q8NBP7 31-692); assay: BIAcore SPR; FIG. 3A

Row | IC50 (biotinylated human PCSK9) [nM] | Kd [1] [nM] | Binder
1 | 1.39 | 0.481 | YW508.20.84 (antibody, V domains shown) VH: EVQLVESGGGLVQPGGSLRLSCAASGFTFTGYAIHWVRQAPGKGLEWVARISPANGNTNYADSVKGRFTISADTSKNTAYLQMNSLRAEDTAVYYCARWIGSRELYIMDYWGQGTLVTVSS VL: DIQMTQSPSSLSASVGDRVTITCRASQDVSTAVAWYQQKPGKAPKLLIYSASFLYSGVPSRFSGSGSGTDFTLTISSLQPEDFATYYCQQSYPAPSTFGQGTKVEIKR
2 | 1.31 | 0.408 | YW508.20.33 (antibody, V domains shown) VH: EVQLVESGGGLVQPGGSLRLSCAASGFTFSSTAIHWVRQAPGKGLEWVARISPANGNTNYADSVKGRFTISADTSKNTAYLQMNSLRAEDTAVYYCARWIGSRELYIMDYWGQGTLVTVSS VL: DIQMTQSPSSLSASVGDRVTITCRASQDVSTAVAWYQQKPGKAPKLLIYSASFLYSGVPSRFSGSGSGTDFTLTISSLQPEDFATYYCQQSYPALHTFGQGTKVEIKR
3 | 15.2 |  | YW508.20 (antibody, V domains shown) VH: EVQLVESGGGLVQPGGSLRLSCAASGFTFTGYAIHWVRQAPGKGLEWVGRISPANGNTNYADSVKGRFTISADTSKNTAYLQMNSLRAEDTAVYYCARWIGSRELYIMDYWGQGTLVTVSS VL: DIQMTQSPSSLSASVGDRVTITCRASQDVSSAVAWYQQKPGKAPKLLIYSASSLYSGVPSRFSGSRSGTDFTLTISSLQPEDFATYYCQQSYTTPPTFGQGTKVEIKR
4 | 1.05 | 0.349 | YW508.20.28 (antibody, V domains shown) VH: EVQLVESGGGLVQPGGSLRLSCAASGFTFTRHTIHWVRQAPGKGLEWVARISPANGNTNYADSVKGRFTISADTSKNTAYLQMNSLRAEDTAVYYCARWIGSRELYIMDYWGQGTLVTVSS VL: DIQMTQSPSSLSASVGDRVTITCRASQDVSTAVAWYQQKPGKAPKLLIYSASFLYSGVPSRFSGSGSGTDFTLTISSLQPEDFATYYCQQSYRIQPTFGQGTKVEIKR
5 | 0.92 | 0.757 | YW508.20.04 (antibody, V domains shown) VH: EVQLVESGGGLVQPGGSLRLSCAASGFTFTGYAIHWVRQAPGKGLEWVGRISPANGNTNYADSVKGRFTISADTSKNTAYLQMNSLRAEDTAVYYCARWIGSRELYIMDYWGQGTLVTVSS VL: DIQMTQSPSSLSASVGDRVTITCRASQDVSTAVAWYQQKPGKAPKLLIYSASFLYSGVPSRFSGSGSGTDFTLTISSLQPEDFATYYCQQSYPAPATFGQGTKVEIKR
6 | 1 | 0.628 | YW508.20.06 (antibody, V domains shown) VH: EVQLVESGGGLVQPGGSLRLSCAASGFTFTGYAIHWVRQAPGKGLEWVARISPANGNTNYADSVKGRFTISADTSKNTAYLQMNSLRAEDTAVYYCARWIGSRELYIMDYWGQGTLVTVSS VL: DIQMTQSPSSLSASVGDRVTITCRASQDVSTAVAWYQQKPGKAPKLLIYSASFLYSGVPSRFSGSGSGTDFTLTISSLQPEDFATYYCQQSYPSPATFGQGTKVEIKR
